Assay results taken from patent US20170081409A1 (AGENUS, published 2017).

Biological target: T1, human PD-1 expressed by activated (SEA-stimulated) primary human CD4+ T cells (human, UniProt Q15116 25-288)
T1 construct: whole, on cells; also called programmed cell death protein 1
Test: flow cytometry on SEA-stimulated human PBMC, CD4+ gate
Method: The anti-PD-1 antibodies AGEN2046w, AGEN2047w, and AGEN2034w were examined for binding to activated peripheral blood mononuclear cells (PBMCs) by flow cytometry. Cryopreserved human PBMCs prepared from unpurified buffy coats (Research Blood Components, Catalog number (Cat#) 002) or cryopreserved cynomolgus PBMCs (Worldwide Primates Inc., customer order) were plated at 10⁵ cells/well in RPMI1640 medium supplemented with Normocin™ (InvivoGen, Cat#ant-nr-1) and 10% heat-inactivated FBS (Gibco, Cat#16140063) in 96-well NUNCLON delta surface plates (NUNC™). The cells were cultured in the presence of 100 ng/ml of Staphylococcus Enterotoxin A (SEA; for human PBMCs) (Toxin Technologies, Cat#at101red) or Staphylococcus Enterotoxin B (SEB; for cynomolgus PBMCs) (Toxin Technology, Cat#bt202red) for 5 days at 37° C., 5% CO₂, and 97% humidity. […] The cells were washed twice with sample buffer and then resuspended in sample buffer and analyzed with a FACS Fortessa cytometer (Becton Dickinson). CD4+ T cells were gated and the mean fluorescence intensity (MFI) was recorded.
The binding of AGEN2034w to activated primary human T cells was measured again in a similar assay. […] Cells were analyzed with a FACS Fortessa cytometer (Becton Dickinson). CD4+ T cells were gated and the mean fluorescence intensity (MFI) of AGEN2034w-positive cells was determined.

T1 sequence (Q15116 25-288): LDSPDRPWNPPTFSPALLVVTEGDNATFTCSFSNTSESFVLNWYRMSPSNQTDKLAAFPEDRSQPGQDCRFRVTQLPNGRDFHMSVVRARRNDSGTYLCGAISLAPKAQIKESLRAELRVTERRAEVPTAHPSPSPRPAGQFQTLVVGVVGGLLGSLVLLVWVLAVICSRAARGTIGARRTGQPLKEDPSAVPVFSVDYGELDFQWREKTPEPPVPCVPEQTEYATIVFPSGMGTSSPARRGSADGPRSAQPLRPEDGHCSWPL

binding result: binds
B1: AGEN2046w (antibody, human IgG1, kappa, V domains shown)
VH: QVQLVESGGGVVQPGRSLRLSCAASGFTFSSYGMHWVRQAPGKGLEWVAVIWYDGSNKYYADSVKGRFTISRDNSKNTLYLQMNSLRAEDTAVYYCASNVDYWGQGTLVTVSS
VL: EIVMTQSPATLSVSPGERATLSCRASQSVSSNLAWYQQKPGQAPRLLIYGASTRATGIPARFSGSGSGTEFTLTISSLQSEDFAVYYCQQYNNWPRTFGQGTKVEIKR
